The supplement of paper PMC10126150
± gives the standard deviation of the averaged measurements.

test system: ATP; assay: switch fluorescence ratio, 500 uM ATP over buffer (Cy3 cluster intensity, sum of 5 cycles each) (fold (ratio)); higher = stronger signal-on switching upon ATP binding; sequences stand for … in TCGTCGGCAGCGTCAGATGTGTATAAGAGACAGTTTTTTTTTTTTTTTTTTTTTTTTT…TC; details: aptamer strand: ATP DNA aptamer (quencher-CACCTGGGGGAGTATTGCGGAGGAAGG + anchor), 100 nM annealed; ATP concentration: 500 uM
Method in brief: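 For every switch-domain sequence, the fluorescence ratio is the mean of per-cluster values, each being summed target-cycle Cy3 intensity over summed buffer-cycle Cy3 intensity. Clusters outside 100-1000 RFU were excluded. On a modified Illumina MiSeq flow-cell, the Cy3-labelled switching-strand clusters were annealed to 100 nM quencher-labelled ATP aptamer, imaged in selection buffer and then after 15 min with 500 uM ATP at 22 °C. Five such cycles were run, with NaOH stripping and re-annealing between them.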
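Further: ATP exposure 15 min at 22 °C before imaging.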

Sequence	switch fluorescence ratio
TATTTGAGTC	0.972 ± 0.021
TATTTGCTGT	1.001 ± 0.001
TATTTGGGAT	1 ± 0.002
TATTTGGGGT	0.999 ± 0.027
TATTTGGTTA	1.024 ± 0.006
TATTTTAGTT	1.02 ± 0.023
TATTTTATGG	0.998 ± 0.025
TATTTTATTT	1 ± 0.018
TATTTTCACT	1.05 ± 0.11
TATTTTCAGA	1.04 ± 0.014
TATTTTGCGG	0.987 ± 0.035
TATTTTGTGC	1.02 ± 0.012
TATTTTTAGC	1 ± 0.03
TATTTTTCAG	1.03 ± 0.015
TATTTTTTA	1.019 ± 0.0089
TCAAAAAATG	1.01 ± 0.042
TCAAAATTAT	1.02 ± 0.043
TCAAAATTGG	1.004 ± 0.0082
TCAAACGCTT	1.12 ± 0.15
TCAAAGCGTT	0.986 ± 0.031
TCAAAGTCGA	0.976 ± 0.045
TCAAATAATC	1.01 ± 0.03
TCAAATCCTG	1.05 ± 0.047
TCAAATGAAT	0.994 ± 0.05
TCAAATGTGC	1.02 ± 0.033

Sequence	switch fluorescence ratio
TCAAATTTTT	0.998 ± 0.045
TCAACGAAGA	1.01 ± 0.018
TCAACTTTTG	0.9856 ± 0.0022
TCAAGAGTTC	1.01 ± 0.06
TCAAGGCGAT	1.09 ± 0.042
TCAAGGGGAG	1.06 ± 0.067
TCAAGGTATT	1 ± 0.034
TCAAGGTGGG	0.998 ± 0.021
TCAAGTGCTT	0.9688 ± 0.0071
TCAAGTTAGT	0.985 ± 0.026
TCAAGTTCTT	1.03 ± 0.031
TCAAGTTGGC	0.998 ± 0.09
TCAATAAAGT	0.961 ± 0.014
TCAATAATGA	1.02 ± 0.027
TCAATAGCCG	1.12 ± 0.14
TCAATGATAT	1.02 ± 0.019
TCAATGGGCT	0.9899 ± 0.0092
TCAATGTGGC	1.04 ± 0.036
TCAATGTGTC	1.03 ± 0.12
TCAATGTTGG	0.988 ± 0.025
TCAATTCGGC	0.991 ± 0.025
TCAATTTCGG	0.99882 ± 0.00079
TCAATTTTTA	1.02 ± 0.02
TCACAATTTT	1.08 ± 0.097
TCACAGGATA	1.021 ± 0.0056

Sequence	switch fluorescence ratio
TCACATGTCG	1.02 ± 0.053
TCACCGACTA	1.1952 ± 0.00033
TCACCGATTC	1.11 ± 0.024
TCACCGTTCT	1.03 ± 0.032
TCACGATTTA	0.99 ± 0.057
TCACGGGGCT	1.01 ± 0.068
TCACTATAGG	1.02 ± 0.036
TCACTCCTTT	1.01 ± 0.019
TCACTGGGTC	1.05 ± 0.023
TCAGAAGGGG	0.995 ± 0.0085
TCAGAAGTAA	1.317 ± 0.0066
TCAGAATTGG	1.01 ± 0.028
TCAGACACGG	1.04 ± 0.039
TCAGAGGAG	1.01 ± 0.025
TCAGAGGGAA	1.07 ± 0.1
TCAGAGGGGC	0.9913 ± 0.0095
TCAGATAGCG	0.98 ± 0.043
TCAGCCAGC	1.06 ± 0.012
TCAGCGCTTT	0.977 ± 0.032
TCAGCTGGGA	1 ± 0.026
TCAGGAATGG	1.055 ± 0.0069
TCAGGACGGG	0.992 ± 0.02
TCAGGGAGGT	0.989 ± 0.051
TCAGGGGCGT	1.0041 ± 0.00072
TCAGGGGTGT	1.08 ± 0.024

Sequence	switch fluorescence ratio
TCAGGTAGCG	1.004 ± 0.0061
TCAGGTGAAT	1.32 ± 0.065
TCAGGTGGGG	1.07 ± 0.046
TCAGGTTAAG	0.9954 ± 0.0061
TCAGGTTTCC	1.0249 ± 0.00069
TCAGTACGCA	1.57 ± 0.095
TCAGTAGAGA	0.995 ± 0.018
TCAGTAGCGG	1.07 ± 0.1
TCAGTAGGGA	2.94 ± 2.8
TCAGTCATTT	1.003 ± 0.0066
TCAGTGCGGG	0.98 ± 0.047
TCAGTGGACG	0.996 ± 0.072
TCAGTGTGCT	0.98 ± 0.014
TCAGTGTGTT	1.02 ± 0.038
TCAGTTAAGG	0.9866 ± 0.0039
TCAGTTATGG	1.001 ± 0.0086
TCAGTTCGGC	0.976 ± 0.037
TCAGTTTAGA	1 ± 0.011
TCAGTTTTGT	1.012 ± 0.0094
TCATAAAGTT	0.994 ± 0.034
TCATACTGTG	1.03 ± 0.014
TCATAGAGG	0.9822 ± 0.0058
TCATAGGGGC	1.04 ± 0.012
TCATATTTAA	1.015 ± 0.0043
TCATCAGGGC	1.08 ± 0.034

Sequence	switch fluorescence ratio
TCATCATTCG	0.9668 ± 0.0052
TCATCGGCAT	4.07 ± 1.3
TCATCGGGGA	1.01 ± 0.028
TCATCTATAT	1.03 ± 0.028
TCATCTGTGC	1.07 ± 0.029
TCATGAACAG	0.993 ± 0.014
TCATGACGT	0.9921 ± 0.0037
TCATGAGTTG	0.963 ± 0.018
TCATGCACTG	1.05 ± 0.035
TCATGCGAAA	1.1 ± 0.013
TCATGCGGGC	1.02 ± 0.038
TCATGCTTGA	0.974 ± 0.032
TCATGCTTTT	1.03 ± 0.019
TCATGGCGTG	0.988 ± 0.011
TCATGGTATG	0.997 ± 0.024
TCATGTAAGT	0.997 ± 0.02
TCATGTAGGG	0.989 ± 0.015
TCATGTCGGG	1.005 ± 0.01
TCATGTCGGT	0.979 ± 0.017
TCATGTTCGT	1.08 ± 0.15
TCATGTTGAT	1 ± 0.071
TCATGTTGTG	1.01 ± 0.02
TCATGTTTCG	1 ± 0.031
TCATTATGCA	1.04 ± 0.018
TCATTATGGA	0.989 ± 0.014

Sequence	switch fluorescence ratio
TCATTCATGG	0.977 ± 0.011
TCATTGAGCG	0.981 ± 0.04
TCATTGAGGA	0.992 ± 0.014
TCATTGTGGG	0.9799 ± 0.00084
TCATTGTGGT	0.988 ± 0.018
TCATTGTTCG	0.958 ± 0.0035
TCATTTTTAC	1.049 ± 0.0072
TCCAAACCCC	1.12 ± 0.046
TCCAACATTT	1 ± 0.046
TCCAATTTTT	0.986 ± 0.024
TCCACATTCC	1.57 ± 0.35
TCCAGAGTGC	1.017 ± 0.0033
TCCAGCGGGG	1.01 ± 0.047
TCCAGCTGA	2.688 ± 0.015
TCCAGGGGAG	1.13 ± 0.032
TCCAGGGGTG	1.65 ± 0.025
TCCAGGGTGC	1.93 ± 0.37
TCCAGGTGAC	4.19 ± 0.38
TCCAGTATTA	0.9945 ± 0.0042
TCCAGTGGAA	0.989 ± 0.044
TCCATAATAG	1.16 ± 0.028
TCCATACCAC	1.03 ± 0.032
TCCATCAGCT	1.1 ± 0.025
TCCATGTTCT	0.992 ± 0.034
TCCATTGGTG	1.2 ± 0.025

Sequence	switch fluorescence ratio
TCCCAAAGGG	1.63 ± 0.91
TCCCAATGCT	4.02 ± 0.55
TCCCCAGGGG	1.1 ± 0.11
TCCCCCCCTT	1.41 ± 0.58
TCCCCGTTTC	1.65 ± 0.75
TCCCGAATTT	1.02 ± 0.016
TCCCGCGGCG	1.08 ± 0.041
TCCCGGGGGA	2 ± 1.2
TCCCGGGTCT	0.992 ± 0.029
TCCCGGGTTT	1.1 ± 0.14
TCCCGTTTTT	1.02 ± 0.065
TCCCTAAAAG	0.9896 ± 0.0049
TCCCTCTCCG	1.27 ± 0.36
TCCCTTTAGT	1.01 ± 0.024
TCCGAACTCG	1.22 ± 0.019
TCCGACTCTT	1.53 ± 0.72
TCCGACTGGT	1.127 ± 0.0014
TCCGCGGCTT	2.12 ± 1.5
TCCGCGGGTG	1.61 ± 0.82
TCCGCGTACG	2.75 ± 0.056
TCCGGAATGG	4.16 ± 0.47
TCCGGAGTTT	2.55 ± 0.38
TCCGGATATA	1.065 ± 0.004
TCCGGCAAGT	2.17 ± 0.13
TCCGGCTACC	1.38 ± 0.039

Sequence	switch fluorescence ratio
TCCGGGAAGC	1.24 ± 0.035
TCCGGGATAT	2.23 ± 0.98
TCCGGGCGGA	1.01 ± 0.021
TCCGGGGGAC	1.52 ± 0.59
TCCGGGGGGT	1.05 ± 0.025
TCCGGGGTAA	1.37 ± 0.51
TCCGGGGTTT	1.02 ± 0.056
TCCGGGTTTG	1.02 ± 0.037
TCCGGTTAGT	1.04 ± 0.015
TCCGTATTTT	1.29 ± 0.41
TCCGTCAATG	1.63 ± 0.07
TCCGTTGTGG	0.991 ± 0.037
TCCGTTTGTG	1 ± 0.024
TCCTAAATGT	0.976 ± 0.048
TCCTACGTTT	1.75 ± 0.86
TCCTAGCGCC	2.02 ± 0.2
TCCTAGGGGA	1.03 ± 0.0033
TCCTATAAAA	0.987 ± 0.032
TCCTCGGGGC	1.6 ± 0.095
TCCTGACGTC	1.043 ± 0.0039
TCCTGATTAT	0.989 ± 0.011
TCCTGCAAGG	1.07 ± 0.05
TCCTGGCAAA	1.59 ± 0.6
TCCTGGGGGC	1.02 ± 0.058
TCCTGGTTTT	0.996 ± 0.046
